In paper PMC3461054:

B1: KLP64DS (KLP64D stalk, untagged) (domain or fragment)
chain: PKKKREKTDAEKEELAKRKNEHQKEIEHAKTEQETLRNKLVSLEGKILVGGENLLEKAQTQELLLEQSIAELEQHEKSEEALKQTLQQKATERIDIEERYSTLQDASTGITKKIHRVMQMLMGVKSELADQQQEHQREKEGIYENIRSLSRELALCELVLNSYVP

Legend:
[1] = target: His-KLP64DS (6xHis-tagged KLP64D stalk) (Drosophila) (UniProt Q9VRK9); experiment: SEC; affinity purified heterodimer on HiLoad 16/60 Superdex 75 pg in 20 mM Tris-Cl pH 7.5, 5 mM MgCl2, 500 mM NaCl, 2.5 mM DTT, 1 ml/min; fractions on SDS-PAGE, band intensities compared
[2] = target: His-KLP68DS (6xHis-tagged KLP68D stalk) (Drosophila); experiment: as above

| Molecule | stoichiometry N [1] | stoichiometry N [2] |
| --- | --- | --- |
| KLP68DS (KLP68D stalk, untagged) (domain or fragment) | 1 |  |
| B1 |  | 1 |
